Measured values taken from PMC5268383, “Inhibition of STAT3 by Anticancer Drug Bendamustine” (PLoS ONE, 2017).
Where no end group is shown, it is not given here. [ ]: non-standard residue; d: D form. pY = N[C@@H](Cc1ccc(OP(=O)(O)O)cc1)C(=O)O

Tests used:
[1] = target: T1, recombinant human STAT3 SH2 domain (Homo sapiens, UniProt P40763); test: AlphaScreen SH2 binding assay, STAT3
T1 construct: Full-length cDNAs were obtained from a human cDNA library by PCR; Avi-tag (biotinylated in BirA-BL21) (N); made in house; host or cells: Escherichia coli BirA-BL21
Protocol: AlphaScreen assays were performed in a final reaction volume of 25 μL of the assay buffer, containing 10 mM HEPES-NaOH (pH 7.4), 50 mM NaCl, 1 mM EDTA (pH 8.0), 0.1% NP-40, and 10 ng/mL BSA in a 96-well microtiter plate at 25°C. The labeled Phospho-Tyr (pTyr) peptide probe was 5-carboxyfluorescein (FITC)-GpYLPQTV for STAT3, FITC-GpYDKPHVL for STAT1, and FITC-PSpYVNVQN for Grb2. A DMSO solution of BENDA was incubated with 50 nM of each SH2-containing protein for 15 min, 50 nM of the corresponding FITC-pTyr peptide was added, and the mixture was incubated for 90 min. Streptavidin-coated donor beads and anti-FITC acceptor beads were added and incubated for 90 min before the signals were measured with an Envision Xcite plate reader (PerkinElmer Life Sciences, Waltham, MA, USA).

[2] = target: T2, cellular STAT3 in MDA-MB-468 cells (Homo sapiens, UniProt P40763); test: Pull-down assay using Bio-BENDA, anti-STAT3 immunoprecipitation; type: cell-based; details: 50 μM Bio-BENDA, 4 h
T2 construct: endogenous in cells; host or cells: MDA-MB-468
Protocol: MDA-MB-468 cells were treated with biotinylated BENDA (Bio-BENDA) in the presence or absence of an excess amount of free drugs for 4 h and then lysed in PhosphoSafe™ Extraction Reagent (Merck, Darmstadt, Germany). Lysate (200 μL) was precleared with a mixture of Protein G Plus/Protein A Agarose Suspension (EMD Millipore, Billerica, MA, USA) for 1 h at 4°C and protein A and G agarose were removed by centrifugation at 13,000 rpm for 10 min. The lysate (200 μL) was immunoprecipitated with STAT3 antibody (1 μL) overnight at 4°C on a shaker and the immunocomplex was captured by the addition of a Protein G Plus/Protein A Agarose Suspension (30 μL) slurry for 1 h at 4°C. Samples were washed five times with lysis buffer and then boiled four times in SDS-PAGE sample buffer and run on an SDS-PAGE gel. The protein was transferred to a nitrocellulose membrane. The membranes were blocked in 5% skim milk in TBS/0.1% Tween 20. They were then incubated with streptavidin-HRP diluted at 1:2000 in 1.5% skim milk in TBS (pH7.4)/0.1% Tween 20 overnight at 4°C. Immunoblots were developed by using a chemiluminescent substrate.

[3] = target: T3, cellular STAT1 in MDA-MB-468 cells (Homo sapiens, UniProt P42224); test: Pull-down assay using Bio-BENDA, anti-STAT1 immunoprecipitation; type: cell-based; details: 50 μM Bio-BENDA, 4 h
T3 construct: endogenous in cells; host or cells: MDA-MB-468

[4] = test system: MDA-MB-468 cells and MDA-MB-453 cells; parameters: method as in PMID 26010889; details: cited from earlier work
[5] = target: T4, mutant recombinant human STAT3, Cys468 to alanine (human, UniProt P40763 1-770, Cys468 to alanine, biotin (Avi-tag; expressed in BirA-BL21 cells induced with 50 μM biotin)); test: AlphaScreen or HTRF; 375 nM mutant recombinant STAT3 incubated with 100 μM BENDA in DMSO for 30 min, then the AlphaScreen SH2 binding assay with the phosphotyrosine peptide; details: both partners purified
T4 construct: human STAT3, full-length cDNA, single point mutation by inverse PCR, in modified pET-28a(+); Expression and purification are described for the wild type; also called Cys468 mutant; mutant STAT3 His-Avi-pET28a (+); source: E. coli BirA-BL21, purified (Ni Sepharose, dialysis); not shown: Avi-tag, N-terminal, kept

[6] = target: T5, mutant recombinant human STAT3, Cys542 to alanine (human, UniProt P40763 1-770, Cys542 to alanine, biotin (Avi-tag; expressed in BirA-BL21 cells induced with 50 μM biotin)); test: as above; details: both partners purified
T5 construct: human STAT3, full-length cDNA, single point mutation by inverse PCR, in modified pET-28a(+); Expression and purification are described for the wild type; also called Cys542 mutant; mutant STAT3 His-Avi-pET28a (+); source: E. coli BirA-BL21, purified (Ni Sepharose, dialysis); not shown: Avi-tag, N-terminal, kept

[7] = target: T6, mutant recombinant human STAT3, C550A (human, UniProt P40763 1-770, C550A, biotin (Avi-tag; expressed in BirA-BL21 cells induced with 50 μM biotin)); test: as above; details: both partners purified
T6 construct: human STAT3, full-length cDNA, single point mutation by inverse PCR, in modified pET-28a(+); Expression and purification are described for the wild type; also called Cys550 mutant; mutant STAT3 His-Avi-pET28a (+); source: E. coli BirA-BL21, purified (Ni Sepharose, dialysis); not shown: Avi-tag, N-terminal, kept

[8] = target: T7, mutant recombinant human STAT3, Cys687 to alanine (human, UniProt P40763 1-770, Cys687 to alanine, biotin (Avi-tag; expressed in BirA-BL21 cells induced with 50 μM biotin)); test: as above; details: both partners purified
T7 construct: human STAT3, full-length cDNA, single point mutation by inverse PCR, in modified pET-28a(+); Expression and purification are described for the wild type; also called Cys687 mutant; mutant STAT3 His-Avi-pET28a (+); source: E. coli BirA-BL21, purified (Ni Sepharose, dialysis); not shown: Avi-tag, N-terminal, kept

[9] = target: T8, mutant recombinant human STAT3, C712A (human, UniProt P40763 1-770, C712A, biotin (Avi-tag; expressed in BirA-BL21 cells induced with 50 μM biotin)); test: as above; details: both partners purified
T8 construct: human STAT3, full-length cDNA, single point mutation by inverse PCR, in modified pET-28a(+); Expression and purification are described for the wild type; also called Cys712 mutant; mutant STAT3 His-Avi-pET28a (+); source: E. coli BirA-BL21, purified (Ni Sepharose, dialysis); not shown: Avi-tag, N-terminal, kept

[10] = target: T9, recombinant human STAT3 (signal transducer and activator of transcription 3) (human, UniProt P40763 1-770, biotin (Avi-tag; expressed in BirA-BL21 cells induced with 50 μM biotin)); test: AlphaScreen or HTRF; 50 nM SH2-containing protein pre-incubated 15 min with BENDA in DMSO, then 50 nM FITC-pTyr peptide 90 min; streptavidin-coated donor beads and anti-FITC acceptor beads 90 min; 10 mM HEPES-NaOH pH 7.4, 50 mM NaCl, 1 mM EDTA, 0.1% NP-40, 10 ng/mL BSA, 25°C; details: both partners purified
T9 construct: human STAT3, full-length cDNA from a human cDNA library, cloned into modified pET-28a(+); also called rhSTAT3; wild-type rhSTAT3; source: E. coli BirA-BL21, purified (Ni Sepharose, dialysis); not shown: Avi-tag, N-terminal, kept
T9 sequence (P40763 whole entry): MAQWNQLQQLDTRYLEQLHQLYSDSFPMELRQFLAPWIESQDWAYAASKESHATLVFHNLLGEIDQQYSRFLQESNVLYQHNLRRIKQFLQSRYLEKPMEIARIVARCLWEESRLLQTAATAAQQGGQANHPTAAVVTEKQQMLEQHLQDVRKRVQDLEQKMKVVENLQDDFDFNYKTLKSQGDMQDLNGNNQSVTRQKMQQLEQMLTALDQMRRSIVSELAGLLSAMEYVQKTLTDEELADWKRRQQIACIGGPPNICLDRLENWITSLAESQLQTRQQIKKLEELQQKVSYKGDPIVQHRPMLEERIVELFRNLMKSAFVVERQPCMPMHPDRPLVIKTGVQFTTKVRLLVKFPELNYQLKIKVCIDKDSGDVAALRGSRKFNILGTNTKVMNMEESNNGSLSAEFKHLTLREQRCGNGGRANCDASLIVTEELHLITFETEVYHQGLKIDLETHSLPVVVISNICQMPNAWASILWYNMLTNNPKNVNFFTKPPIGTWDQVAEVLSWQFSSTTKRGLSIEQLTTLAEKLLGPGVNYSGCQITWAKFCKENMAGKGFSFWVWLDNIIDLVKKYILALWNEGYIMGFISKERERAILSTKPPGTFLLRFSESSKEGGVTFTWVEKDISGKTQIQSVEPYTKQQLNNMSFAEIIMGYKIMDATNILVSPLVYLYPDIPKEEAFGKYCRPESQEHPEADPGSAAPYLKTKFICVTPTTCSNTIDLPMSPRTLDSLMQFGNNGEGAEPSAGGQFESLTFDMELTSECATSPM

T7 sequence (P40763 other isoform, or with tags, fused parts or gaps Cys687 to alanine | Cys687 to alanine | mutant): as the sequence (P40763 whole entry) above, with C687A counted along it
T6 sequence (P40763 whole entry C550A): as the sequence (P40763 whole entry) above, with C550A counted along it
T5 sequence (P40763 other isoform, or with tags, fused parts or gaps Cys542 to alanine | Cys542 to alanine | mutant): as the sequence (P40763 whole entry) above, with C542A counted along it
T4 sequence (P40763 other isoform, or with tags, fused parts or gaps Cys468 to alanine | Cys468 to alanine | mutant): as the sequence (P40763 whole entry) above, with C468A counted along it
T2 sequence (P40763 2-770 limits assumed): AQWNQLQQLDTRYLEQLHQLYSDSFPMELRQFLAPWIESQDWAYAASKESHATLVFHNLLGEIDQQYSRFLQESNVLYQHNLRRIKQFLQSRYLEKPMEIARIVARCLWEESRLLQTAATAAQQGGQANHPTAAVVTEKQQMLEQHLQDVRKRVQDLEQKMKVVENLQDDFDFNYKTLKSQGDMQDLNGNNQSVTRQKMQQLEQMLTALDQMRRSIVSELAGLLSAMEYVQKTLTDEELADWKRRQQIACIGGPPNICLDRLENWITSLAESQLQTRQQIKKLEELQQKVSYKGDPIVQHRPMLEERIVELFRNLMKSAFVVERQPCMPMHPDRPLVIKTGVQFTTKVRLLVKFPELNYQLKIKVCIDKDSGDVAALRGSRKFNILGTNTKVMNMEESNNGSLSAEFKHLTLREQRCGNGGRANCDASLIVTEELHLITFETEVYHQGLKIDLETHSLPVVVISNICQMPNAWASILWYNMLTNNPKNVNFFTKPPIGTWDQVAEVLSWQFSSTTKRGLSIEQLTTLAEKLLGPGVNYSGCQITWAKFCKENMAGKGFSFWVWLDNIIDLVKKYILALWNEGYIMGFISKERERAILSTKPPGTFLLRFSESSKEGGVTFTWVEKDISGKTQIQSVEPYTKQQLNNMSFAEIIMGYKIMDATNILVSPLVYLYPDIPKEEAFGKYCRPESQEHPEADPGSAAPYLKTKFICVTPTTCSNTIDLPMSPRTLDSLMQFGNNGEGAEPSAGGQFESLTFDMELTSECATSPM
T8 sequence (P40763 whole entry C712A): as the sequence (P40763 whole entry) above, with C712A counted along it
T1 sequence (P40763 whole entry, the tested form may be a part): as the sequence (P40763 whole entry) above
T3 sequence (P42224 whole entry): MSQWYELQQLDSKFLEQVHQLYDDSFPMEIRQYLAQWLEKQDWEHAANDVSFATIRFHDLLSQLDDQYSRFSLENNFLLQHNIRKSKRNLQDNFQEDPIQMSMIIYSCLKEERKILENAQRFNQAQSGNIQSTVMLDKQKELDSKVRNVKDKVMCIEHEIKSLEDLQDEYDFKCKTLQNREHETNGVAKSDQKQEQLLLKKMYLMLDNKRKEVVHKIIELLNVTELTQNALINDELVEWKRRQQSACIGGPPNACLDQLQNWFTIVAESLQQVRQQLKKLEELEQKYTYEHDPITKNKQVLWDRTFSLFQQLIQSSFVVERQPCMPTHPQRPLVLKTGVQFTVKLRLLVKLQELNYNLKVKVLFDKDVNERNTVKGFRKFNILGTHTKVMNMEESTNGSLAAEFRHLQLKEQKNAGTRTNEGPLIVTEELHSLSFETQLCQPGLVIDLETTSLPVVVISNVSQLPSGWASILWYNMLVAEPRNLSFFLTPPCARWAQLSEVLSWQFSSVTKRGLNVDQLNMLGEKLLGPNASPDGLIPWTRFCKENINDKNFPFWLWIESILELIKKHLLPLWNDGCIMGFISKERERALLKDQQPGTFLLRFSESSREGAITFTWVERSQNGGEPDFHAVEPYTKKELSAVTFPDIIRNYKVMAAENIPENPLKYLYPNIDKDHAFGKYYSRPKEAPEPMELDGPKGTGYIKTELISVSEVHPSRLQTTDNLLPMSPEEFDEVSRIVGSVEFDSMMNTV

For `CCOC(=O)CCCc1nc2cc(N(CCCl)CCCl)ccc2n1C` [BM1EE, BENDA ethyl ester], which IC50 [1] is on record?
The IC50 was 6.1 µM.

For `Cn1c(CCCC(=O)OCCOCCOCCOCCNC(=O)CCC[C@@H]2SC[C@@H]3NC(=O)N[C@@H]32)nc2cc(N(CCCl)CCCl)ccc21` [Bio-BENDA, 13-Oxo-16-[(3aS,4S,6aR)-2-oxohexahydro-1H-thieno[3,4-d]imidazol-4-yl]-3,6,9-trioxa-12-azahexadecyl 4-{5-[bis(2-chloroethyl)amino]-1-methyl-1H-benzo[d]imidazol-2-yl}butanoate], which “Binding to cellular STAT3 (band by streptavidin-HRP after anti-STAT3 IP)” value [2] is on record?
Its value is “the STAT3 band was observed”.

What about the “Binding to cellular STAT1 (band by streptavidin-HRP after anti-STAT1 IP)” value [3] of the same molecule?
The value was “no band”.

Which “Growth inhibition of MDA-MB-468 versus MDA-MB-453 cells” value [4] does the source give for `C=C1C(=O)[C@]23C[C@H]1CC[C@H]2[C@@]12CO[C@]3(O)[C@@H](O)[C@@H]1C(C)(C)C=CC2=O` [Eriocalyxin B] here?
Its value is “inhibit the growth of MDA-MB-468 cells more than that of the MDA-MB-453 cells”.

For `O=[N+]([O-])c1ccc2c(c1)S(=O)(=O)C=C2` [Stattic], which “Growth inhibition of MDA-MB-468 versus MDA-MB-453 cells” value [4] is on record?
Its value is “inhibit the growth of MDA-MB-468 cells more than that of the MDA-MB-453 cells”.

B1: 5-carboxyfluorescein (FITC)-GpYLPQTV, labeled Phospho-Tyr peptide probe for STAT3 (peptide)
peptide: G[pY]LPQTV
modifications: not fully specified (N-terminus)
notes: the leading G is not the natural residue there; also called phosphotyrosine peptide; pTyr peptide; source: synthetic peptide (NippiBiomatrix Laboratory)
Does B1 bind [5]?
Result: binds

Does B1 bind [6]?
Result: binds

Does B1 bind [7]?
Result: binds

Does B1 bind [8]?
Result: binds

Does B1 bind [9]?
Result: binds

Does B1 bind [10]?
Result: binds
